The values below come from IntAct's records for PubMed 24012959.

To fix the notation:
B1: "Na(+)/H(+) exchange regulatory cofactor NHE-RF1" (Homo sapiens), O14745 (parent)
chain: MSADAAAGAPLPRLCCLEKGPNGYGFHLHGEKGKLGQYIRLVEPGSPAEKAGLLAGDRLVEVNGENVEKETHQQVVSRIRAALNAVRLLVVDPETDEQLQKLGVQVREELLRAQEAPGQAEPPAAAEVQGAGNENEPREADKSHPEQRELRPRLCTMKKGPSGYGFNLHSDKSKPGQFIRSVDPDSPAEASGLRAQDRIVEVNGVCMEGKQHGDVVSAIRAGGDETKLLVVDRETDEFFKKCRVIPSQEHLNGPLPVPFTNGEIQKENSREALAEAALESPRPALVRSASSDTSEELNSQDSPPKQDSTAPSSTSSSDPILDFNISLAMAKERAHQKRSSKRAPQMDWSKKNELFSNL

The test covers variants of B1. The following applies: with pgfrb_human PDGFRB.
In the case of D301V, the “effect of a mutation on the interaction” value is “increasing interaction”.
